The supplement of paper PMC10567573

B1: TNNI2 (parent)
chain: DWRKNIEEKSGMEGRKKMFESES

Variants of: B1
Test: protein stability index of a GFP-peptide fusion (GPS, HEK-293T) (PSI 1-6); higher = more stable
Settings: c terminus: native
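Also: lentivirally expressed fusions sorted by FACS into six bins by GFP to DsRed ratio, PSI derived from sequencing read proportions per bin multiplied by bin number.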

Point of comparison: DWRKNCEEKSGMEGRKKMFESES [I6C], protein stability index 2.54. Against it:
- DWRKNIGEKSGMEGRKKMFESES [E7G] — lower, 1.83
- DWRKNIAEKSGMEGRKKMFESES [E7A] — lower, 2.16
- DWRKNIDEKSGMEGRKKMFESES [E7D] — higher, 3
- DWRKNILEKSGMEGRKKMFESES [E7L] — lower, 2.17
- DWRKNIWEKSGMEGRKKMFESES [E7W] — lower, 2.01
- DWRKNIREKSGMEGRKKMFESES [E7R] — higher, 2.8
- DWRKNIHEKSGMEGRKKMFESES [E7H] — lower, 1.84
- DWRKNIPEKSGMEGRKKMFESES [E7P] — higher, 2.85
- DWRKNIIEKSGMEGRKKMFESES [E7I] — lower, 1.75
- DWRKNISEKSGMEGRKKMFESES [E7S] — lower, 1.76
- DWRKNIQEKSGMEGRKKMFESES [E7Q] — higher, 2.56
- DWRKNIMEKSGMEGRKKMFESES [E7M] — lower, 2.25
- DWRKNITEKSGMEGRKKMFESES [E7T] — higher, 2.82
- DWRKNIKEKSGMEGRKKMFESES [E7K] — higher, 2.62
- DWRKNINEKSGMEGRKKMFESES [E7N] — higher, 2.79
- DWRKNIYEKSGMEGRKKMFESES [E7Y] — lower, 2.12
- DWRKNIVEKSGMEGRKKMFESES [E7V] — lower, 2.26
- DWRKNICEKSGMEGRKKMFESES [E7C] — lower, 2.01
- DWRKNIFEKSGMEGRKKMFESES [E7F] — lower, 1.77
- DWRKNYEEKSGMEGRKKMFESES [I6Y] — lower, 1.88
- DWRKNKEEKSGMEGRKKMFESES [I6K] — lower, 2.23
- DWRKNTEEKSGMEGRKKMFESES [I6T] — higher, 3.26
- DWRKNSEEKSGMEGRKKMFESES [I6S] — the same, 2.54
- DWRKNGEEKSGMEGRKKMFESES [I6G] — lower, 2.41
- DWRKNPEEKSGMEGRKKMFESES [I6P] — higher, 3.72
- DWRKNREEKSGMEGRKKMFESES [I6R] — lower, 2.09
- DWRKNAEEKSGMEGRKKMFESES [I6A] — higher, 2.59
- DWRKNMEEKSGMEGRKKMFESES [I6M] — lower, 2.52
- DWRKNHEEKSGMEGRKKMFESES [I6H] — lower, 2.12
- DWRKNNEEKSGMEGRKKMFESES [I6N] — the same, 2.54
- DWRKNQEEKSGMEGRKKMFESES [I6Q] — higher, 3.26
- DWRKNVEEKSGMEGRKKMFESES [I6V] — lower, 2.09
- DWRKNIEEYSGMEGRKKMFESES [K9Y] — lower, 1.93
- DWRKNIEENSGMEGRKKMFESES [K9N] — higher, 2.58
- DWRKNIEEESGMEGRKKMFESES [K9E] — lower, 2.13
- DWRKNIEETSGMEGRKKMFESES [K9T] — the same, 2.54
- DWRKNIEEQSGMEGRKKMFESES [K9Q] — lower, 1.68
- DWRKNIEELSGMEGRKKMFESES [K9L] — lower, 2.51
- DWRKNIEESSGMEGRKKMFESES [K9S] — higher, 3.35
- DWRKNIEEISGMEGRKKMFESES [K9I] — lower, 2.39
- DWRKNIEEPSGMEGRKKMFESES [K9P] — lower, 1.75
- DWRKNIEEHSGMEGRKKMFESES [K9H] — lower, 2.4
- DWRKNIEEFSGMEGRKKMFESES [K9F] — lower, 2.44
- DWRKNIEECSGMEGRKKMFESES [K9C] — lower, 1.84
- DWRKNIEEWSGMEGRKKMFESES [K9W] — lower, 2.34
- DWRKNIEEDSGMEGRKKMFESES [K9D] — lower, 1.73
- DWRKNIEEKSGFEGRKKMFESES [M12F] — lower, 2.38
- DWRKNIEEKSGKEGRKKMFESES [M12K] — higher, 2.72
- DWRKNIEEKSGNEGRKKMFESES [M12N] — higher, 2.89
- DWRKNIEEKSGPEGRKKMFESES [M12P] — lower, 1.96
- DWRKNIEEKSGEEGRKKMFESES [M12E] — lower, 2.47
- DWRKNIEEKSGIEGRKKMFESES [M12I] — higher, 3.01
- DWRKNIEEKSGDEGRKKMFESES [M12D] — lower, 2.52
- DWRKNIEEKSGLEGRKKMFESES [M12L] — lower, 2.13
- DWRKNIEEKSGHEGRKKMFESES [M12H] — lower, 2.42
- DWRKNIEEKSGCEGRKKMFESES [M12C] — higher, 2.71
- DWRKNIEEKAGMEGRKKMFESES [S10A] — lower, 1.7
- DWRKNIEEKKGMEGRKKMFESES [S10K] — lower, 2.18
- DWRKNIEEKNGMEGRKKMFESES [S10N] — the same, 2.54
- DWRKNIEEKQGMEGRKKMFESES [S10Q] — higher, 2.97
- DWRKNIEEKRGMEGRKKMFESES [S10R] — higher, 2.55
- DWRKNIEEKYGMEGRKKMFESES [S10Y] — higher, 2.82
- DWRKNIEEKLGMEGRKKMFESES [S10L] — lower, 1.58
- DWRKNIEEKIGMEGRKKMFESES [S10I] — higher, 2.89
- DWRKNIEEKPGMEGRKKMFESES [S10P] — lower, 2.52
- DWRKNIEEKCGMEGRKKMFESES [S10C] — lower, 1.81
- DWRKNIEEKMGMEGRKKMFESES [S10M] — lower, 2.16
- DWRKNIEEKEGMEGRKKMFESES [S10E] — lower, 2.28
- DWRKNIEEKTGMEGRKKMFESES [S10T] — lower, 2.47
- DWRKNIEEKGGMEGRKKMFESES [S10G] — lower, 2.42
- DWRKNIEEKVGMEGRKKMFESES [S10V] — lower, 1.02
- DWRKNIEEKHGMEGRKKMFESES [S10H] — lower, 2.29
- DWRKRIEEKSGMEGRKKMFESES [N5R] — higher, 2.95
- DWRKDIEEKSGMEGRKKMFESES [N5D] — lower, 1.94
- DWRKLIEEKSGMEGRKKMFESES [N5L] — higher, 2.57
- DWRKFIEEKSGMEGRKKMFESES [N5F] — lower, 2.43
- DWRKQIEEKSGMEGRKKMFESES [N5Q] — higher, 2.72
- DWRKWIEEKSGMEGRKKMFESES [N5W] — lower, 1.64
- DWRKYIEEKSGMEGRKKMFESES [N5Y] — lower, 1.62
- DWRKSIEEKSGMEGRKKMFESES [N5S] — lower, 2.31
- DWRKMIEEKSGMEGRKKMFESES [N5M] — lower, 2.37
- DWRKEIEEKSGMEGRKKMFESES [N5E] — lower, 2.28
- DWRKGIEEKSGMEGRKKMFESES [N5G] — lower, 2.5
- DWRKHIEEKSGMEGRKKMFESES [N5H] — lower, 2.07
- DWRKTIEEKSGMEGRKKMFESES [N5T] — higher, 3.41
- DWRKVIEEKSGMEGRKKMFESES [N5V] — lower, 2.04
- DWRKCIEEKSGMEGRKKMFESES [N5C] — higher, 2.7
- DWRKAIEEKSGMEGRKKMFESES [N5A] — higher, 3.79
- DWRKPIEEKSGMEGRKKMFESES [N5P] — higher, 3.97
- DWRKIIEEKSGMEGRKKMFESES [N5I] — lower, 2.32
- PWRKNIEEKSGMEGRKKMFESES [D1P] — higher, 2.57
- HWRKNIEEKSGMEGRKKMFESES [D1H] — lower, 2.27
- WWRKNIEEKSGMEGRKKMFESES [D1W] — higher, 3.07
- RWRKNIEEKSGMEGRKKMFESES [D1R] — higher, 2.79
- SWRKNIEEKSGMEGRKKMFESES [D1S] — lower, 1.79
- CWRKNIEEKSGMEGRKKMFESES [D1C] — lower, 1.75
